From article PMC3929782

Target: Cy-5-labelled H2A/H2B dimer, wild type (UniProt P02281)
Test: fluorescence polarisation

Question: Which Kd does the source give for “RNF168 RING domain (residues 1–189) (from UniProt Q8IYW5 1-189) (domain or fragment)” here?
Answer: 1000 nM
